The values below are quoted from earlier work in publication PMC3946517.

What is called Kd is the constant that tells how readily two partners part at equilibrium.

Where only a bound is given, the exact number is not on record here.

Series [1] deals with quinol MADH (Paracoccus denitrificans) (UniProt P22619). Briefly: stopped-flow kinetics.
Series [2] deals with preMADH (Paracoccus denitrificans) (UniProt P22619). The series is described as follows: stopped-flow kinetics.

Take MauG (from UniProt Q51658): the dissociation constant Kd in series [1] was 11.2 µM; in series [2] it was below 1.5 µM.
